# Experimental data: US20250197505A1 (DREN BIO, published 2025)
# T1: human CD94 expressed on cells (human primary NK cells in PBMCs; HEK cells expressing human CD94) (human, UniProt Q13241 1-179)
# T1 sequence (looked up): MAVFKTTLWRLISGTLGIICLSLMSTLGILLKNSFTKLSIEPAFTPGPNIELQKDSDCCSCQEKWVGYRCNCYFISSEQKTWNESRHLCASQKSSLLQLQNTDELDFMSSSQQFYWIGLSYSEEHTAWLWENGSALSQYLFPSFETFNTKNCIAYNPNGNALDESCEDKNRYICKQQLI
# T2: cynomolgus CD94 expressed on HEK293 cells (cynomolgus monkey, UniProt Q68VD4 1-179)
# T2 construct: also called cyno-CD94; cynomolgus monkey CD94
# T2 sequence: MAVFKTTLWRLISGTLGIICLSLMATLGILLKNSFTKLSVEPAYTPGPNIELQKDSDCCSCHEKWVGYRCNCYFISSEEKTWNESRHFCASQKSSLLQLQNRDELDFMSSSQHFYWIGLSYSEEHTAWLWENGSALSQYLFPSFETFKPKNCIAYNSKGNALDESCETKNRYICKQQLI
# B1: anti-CD94 antibody clone 18H3 (antibody, V domains shown)
# VH: EVQLVQSGAEVKKPGESLKISCKGSGYRFTSYWIGWVRQMPGKGLEWMGIIYPGDSDTRYSPSFQGQVIISADKSITTAFLQWSSLKASDTAMYYCARPFDYGGSPGYFDYWGQGTLVTVSS
# VL: DIQMTQSPSTLSASVGDRVTITCRASQSIRSWLAWYQQKPGKAPKLLIYKASSLESGVPSRFSGSGSGTEFTLTISSLQPDDFATYYCQQYNTFWTFGQGTKVEIK
# notes: also called 18H3-AF647
# How the values were obtained:
# [1] = biological target: T1, human CD94 expressed on cells (human …); assay: cell-based or functional assay
# [2] = biological target: T2, cynomolgus CD94 expressed on HEK293 …; assay: flow cytometry, cynomolgus CD94-expressing HEK293 cells
# Text: Anti-CD94 hybridoma supernatants were screened on cynomolgus CD94-expressing HEK293 cells by flow cytometry for cross-reactivity to cynomolgus CD94. HP-3D9 is a commercial anti-CD94 antibody that was used as a negative control. Mouse IgG1, IgG2a, IgG2b and IgG3 were used as negative controls. […] Commercially available anti-CD94 antibodies were used to test cynomolgus cross-reactivity. 18H3 was used as a positive control. The MFI of each antibody was normalized to the MFI of its respective isotype.
# Cynomolgus CD94-expressing HEK293 cells were seeded in 96-well plates at a density of 100,000 cells per well, incubated with cell viability dye (Thermo Fisher) for 30 minutes on ice and protected from light. The cells were washed once with FACS buffer (PBS with 2% IgG low FBS). Hybridoma supernatants, anti-CD94 antibodies and isotype controls were incubated with cells for 30 minutes on ice and protected from light. […] After incubation, the cells received a final wash in FACS buffer before quantification on the Cytoflex (Beckman Coulter). All data acquisition and fluorescence compensation were performed using CytoFlex (Beckman Coulter, Atlanta, GA). […] CD94 expression was then quantified on this population. […]
# [3] = biological target: T1, human CD94 expressed on cells (human …); assay: competition assay, flow cytometry on CD3-CD56+ NK cells in healthy donor PBMCs; AF647-labelled 18H3 titrated in the presence of Mouse IgG1 control (no competitor)
# Description: FIGS. 5A-5B show the results of competition assays performed for 18H3 anti-CD94 antibody evaluation. For all competition assays, 18H3 was incubated with PBMCs at a concentration of […]. […] Commercially available anti-CD94 antibodies were titrated and incubated with PBMCs concurrently with 18H3. […] To test competition between 18H3 and 1M4/1E4, 1M4 and 1E4 were incubated with cells at concentrations of 8.5 µg/ml and […], respectively. 18H3 was fluorescently tagged with AF647 and incubated with cells concurrently with […].
# Healthy donor PBMCs were seeded in 96-well plates at a density of 100,000 cells per well, incubated with human Fc block (Biolegend) and cell viability dye (Thermo Fisher) for 30 minutes on ice and protected from light. The cells were washed once with FACS buffer (PBS with 2% IgG low FBS). Unconjugated anti-CD94 antibodies at EC80 concentrations, CD3 FITC and CD56 PE antibodies, and APC-labeled anti-CD94 antibodies were incubated with cells for 30 minutes on ice and protected from light. The cells then received a final wash in FACS buffer before quantification on the Cytoflex (Beckman Coulter). All data acquisition and fluorescence compensation were performed using CytoFlex (Beckman Coulter, Atlanta, GA). Data analysis was performed using FlowJo software. […] Anti-CD94 APC was then quantified on the CD3−CD56+NK cell population. […]
# [4] = biological target: T1, human CD94 expressed on cells (human …); assay: HLA-E tetramer blocking assay, flow cytometry on CD3-CD56+ NK cells in healthy donor PBMCs; antibody at one saturating concentration, blocked ligand PE-labelled HLA-E tetramer; percent blocking = 100-((percent HLA-E positive with antibody)/(percent HLA-E positive with isotype)*100)
# Description: Healthy donor PBMCs were incubated with anti-CD94 antibodies. PE labeled HLA-E tetramer was then incubated with the cell and antibody mixture, and detected using flow cytometry. For HP-3B1, 131412, 12K45, DX22, 1M4 and 1E4, 2.5 μl of HLA-E tetramer reagent was used, while 5 μl was used for 18H3 and HP-3D9. Saturating concentrations of each antibody was used in this assay. The percent blocking was calculated as 100−((percent HLA-E positive for anti-CD94 antibody)/(percent HLA-E positive for isotype)*100).
# Healthy donor PBMCs were seeded in 96-well plates at a density of 100,000 cells per well, incubated with human Fc block (Biolegend) and cell viability dye (Thermo Fisher) for 30 minutes on ice and protected from light. The cells were washed once with FACS buffer (PBS with 2% IgG low FBS). anti-CD94 antibodies at EC80 concentrations were incubated with cells for 30 minutes on ice and protected from light. After incubation with the anti-CD94 antibodies, the cells were washed and incubated with HLA-E tetramer PE (Creative Biolabs), anti-CD3 pacific blue-labelled, and anti-CD56 FITC-labelled antibodies (Biolegend) for 30 minutes on ice and protected from light. The cells then received a final wash in FACS buffer before quantification on the Cytoflex (Beckman Coulter). All data acquisition and fluorescence compensation were performed using CytoFlex (Beckman Coulter, Atlanta, GA). Data analysis was performed using FlowJo software. NK cells were identified through gating on lymphocytes on the forward and side scatter, followed by doublet and dead cell exclusion, and gated on the CD3−CD56+ population. HLA-E expression was then quantified on the CD3−CD56+NK cell population. Percent blocking was calculated as 100−((percent HLA-E positive for anti-CD94 antibody)/(percent HLA-E positive for isotype)*100).
binder,measurement,setting,value
B1,"percent decrease in MFI (antibody internalization assay), comparing 0.5 hours to 24 hours at 37° C.",[1],24%
same,binding result,[2],binds
same,EC50 (read off the curve),[3],~1 nM
same,HLA-E Blocking,[4],0%
